log10 ratio data for 54 molecules are collected here from paper PMC4912689, “The Extracellular Surface of the GLP-1 Receptor Is a Molecular Trigger for Biased Agonism” (Cell, 2016).

To fix the notation:
B1: glucagon-like peptide 1 receptor (GLP-1R), wild-type, P43220 Y289A (protein)
chain: RPQGATVSLWETVQKWREYRRQCQRSLTEDPPPATDLFCNRTFDEYACWPDGEPGSFVNVSCPWYLPWASSVPQGHVYRFCTAEGLWLQKDNSSLPWRDLSECEESKRGERSSPEEQLLFLYIIYTVGYALSFSALVIASAILLGFRHLHCTRNYIHLNLFASFILRALSVFIKDAALKWMYSTAAQQHQWDGLLSYQDSLSCRLVFLLMQYCVAANYYWLLVEGVYLYTLLAFSVLSEQWIFRLYVSIGWGVPLLFVVPWGIVKALYEDEGCWTRNSNMNYWLIIRLPILFAIGVNFLIFVRVICIVVSKLKANLMCKTDIKCRLAKSTLTLIPLLGTHEVIFAFVMDEHARGTLRFIKLFTELSFTSFQGLMVAILYCFVNNEVQLEFRKSWERWRLEHLHIQRDSSMKPLKCPTSSLSSGATAGSSMYTATCQASCS
B2: glucagon-like peptide 1 receptor (GLP-1R), wild-type, P43220 Q213A (protein)
chain: B1 chain with Q190A, A266Y
B3: glucagon-like peptide 1 receptor (GLP-1R), wild-type, P43220 Q210A (protein)
chain: B1 chain with Q187A, A266Y
B4: glucagon-like peptide 1 receptor (GLP-1R), wild-type, P43220 E373A (protein)
chain: B1 chain with A266Y, E350A
B5: glucagon-like peptide 1 receptor (GLP-1R), wild-type, P43220 D372A (protein)
chain: B1 chain with A266Y, D349A
B6: glucagon-like peptide 1 receptor (GLP-1R), wild-type, P43220 T207A (protein)
chain: B1 chain with T184A, A266Y
B7: glucagon-like peptide 1 receptor (GLP-1R), wild-type, P43220 T378A (protein)
chain: B1 chain with A266Y, T355A
B8: glucagon-like peptide 1 receptor (GLP-1R), wild-type, P43220 G295A (protein)
chain: B1 chain with A266Y, G272A
B9: glucagon-like peptide 1 receptor (GLP-1R), wild-type, P43220 C296A (protein)
chain: B1 chain with A266Y, C273A
B10: glucagon-like peptide 1 receptor (GLP-1R), wild-type, P43220 T298A (protein)
chain: B1 chain with A266Y, T275A
B11: glucagon-like peptide 1 receptor (GLP-1R), wild-type, P43220 N300A (protein)
chain: B1 chain with A266Y, N277A
B12: glucagon-like peptide 1 receptor (GLP-1R), wild-type, P43220 G377A (protein)
chain: B1 chain with A266Y, G354A
B13: glucagon-like peptide 1 receptor (GLP-1R), wild-type, P43220 M303A (protein)
chain: B1 chain with A266Y, M280A
B14: glucagon-like peptide 1 receptor (GLP-1R), wild-type, P43220 W203A (protein)
chain: B1 chain with W180A, A266Y
B15: glucagon-like peptide 1 receptor (GLP-1R), wild-type, P43220 E292A (protein)
chain: B1 chain with A266Y, E269A
B16: glucagon-like peptide 1 receptor (GLP-1R), wild-type, P43220 L379A (protein)
chain: B1 chain with A266Y, L356A
B17: glucagon-like peptide 1 receptor (GLP-1R), wild-type, P43220 V287A (protein)
chain: B1 chain with V264A, A266Y
B18: glucagon-like peptide 1 receptor (GLP-1R), wild-type, P43220 Q221A (protein)
chain: B1 chain with Q198A, A266Y
B19: glucagon-like peptide 1 receptor (GLP-1R), wild-type, P43220 D222A (protein)
chain: B1 chain with D199A, A266Y
B20: glucagon-like peptide 1 receptor (GLP-1R), wild-type, P43220 Y220A (protein)
chain: B1 chain with Y197A, A266Y
B21: glucagon-like peptide 1 receptor (GLP-1R), wild-type, P43220 K383A (protein)
chain: B1 chain with A266Y, K360A
B22: glucagon-like peptide 1 receptor (GLP-1R), wild-type, P43220 N304A (protein)
chain: B1 chain with A266Y, N281A
B23: glucagon-like peptide 1 receptor (GLP-1R), wild-type, P43220 K288A (protein)
chain: B1 chain with K265A, A266Y
B24: glucagon-like peptide 1 receptor (GLP-1R), wild-type, P43220 Y291A (protein)
chain: B1 chain with A266Y, Y268A
B25: glucagon-like peptide 1 receptor (GLP-1R), wild-type, P43220 M204A (protein)
chain: B1 chain with M181A, A266Y
B26: glucagon-like peptide 1 receptor (GLP-1R), wild-type, P43220 S219A (protein)
chain: B1 chain with S196A, A266Y
B27: glucagon-like peptide 1 receptor (GLP-1R), wild-type, P43220 Y205A (protein)
chain: B1 chain with Y182A, A266Y
B28: glucagon-like peptide 1 receptor (GLP-1R), wild-type, P43220 W214A (protein)
chain: B1 chain with W191A, A266Y
B29: glucagon-like peptide 1 receptor (GLP-1R), wild-type, P43220 L201A (protein)
chain: B1 chain with L178A, A266Y
B30: glucagon-like peptide 1 receptor (GLP-1R), wild-type, P43220 R376A (protein)
chain: B1 chain with A266Y, R353A
B31: glucagon-like peptide 1 receptor (GLP-1R), wild-type, P43220 R299A (protein)
chain: B1 chain with A266Y, R276A
B32: glucagon-like peptide 1 receptor (GLP-1R), wild-type, P43220 L384A (protein)
chain: B1 chain with A266Y, L361A
B33: glucagon-like peptide 1 receptor (GLP-1R), wild-type, P43220 G285A (protein)
chain: B1 chain with G262A, A266Y
B34: glucagon-like peptide 1 receptor (GLP-1R), wild-type, P43220 I286A (protein)
chain: B1 chain with I263A, A266Y
B35: glucagon-like peptide 1 receptor (GLP-1R), wild-type, P43220 L307A (protein)
chain: B1 chain with A266Y, L284A
B36: glucagon-like peptide 1 receptor (GLP-1R), wild-type, P43220 S223A (protein)
chain: B1 chain with S200A, A266Y
B37: glucagon-like peptide 1 receptor (GLP-1R), wild-type, P43220 I382A (protein)
chain: B1 chain with A266Y, I359A
B38: glucagon-like peptide 1 receptor (GLP-1R), wild-type, P43220 H374A (protein)
chain: B1 chain with A266Y, H351A
B39: glucagon-like peptide 1 receptor (GLP-1R), wild-type, P43220 F385A (protein)
chain: B1 chain with A266Y, F362A
B40: glucagon-like peptide 1 receptor (GLP-1R), wild-type, P43220 R380A (protein)
chain: B1 chain with A266Y, R357A
B41: glucagon-like peptide 1 receptor (GLP-1R), wild-type, P43220 Y305A (protein)
chain: B1 chain with A266Y, Y282A
B42: glucagon-like peptide 1 receptor (GLP-1R), wild-type, P43220 N302A (protein)
chain: B1 chain with A266Y, N279A
B43: glucagon-like peptide 1 receptor (GLP-1R), wild-type, P43220 D293A (protein)
chain: B1 chain with A266Y, D270A
B44: glucagon-like peptide 1 receptor (GLP-1R), wild-type, P43220 W297A (protein)
chain: B1 chain with A266Y, W274A
B45: glucagon-like peptide 1 receptor (GLP-1R), wild-type, P43220 F381A (protein)
chain: B1 chain with A266Y, F358A
B46: glucagon-like peptide 1 receptor (GLP-1R), wild-type, P43220 T386A (protein)
chain: B1 chain with A266Y, T363A
B47: glucagon-like peptide 1 receptor (GLP-1R), wild-type, P43220 S301A (protein)
chain: B1 chain with A266Y, S278A
B48: glucagon-like peptide 1 receptor (GLP-1R), wild-type, P43220 E387A (protein)
chain: B1 chain with A266Y, E364A
B49: glucagon-like peptide 1 receptor (GLP-1R), wild-type, P43220 S206A (protein)
chain: B1 chain with S183A, A266Y
B50: glucagon-like peptide 1 receptor (GLP-1R), wild-type, P43220 L217A (protein)
chain: B1 chain with L194A, A266Y
B51: glucagon-like peptide 1 receptor (GLP-1R), wild-type, P43220 D215A (protein)
chain: B1 chain with D192A, A266Y
B52: glucagon-like peptide 1 receptor (GLP-1R), wild-type, P43220 L218A (protein)
chain: B1 chain with L195A, A266Y
B53: glucagon-like peptide 1 receptor (GLP-1R), wild-type, P43220 L290A (protein)
chain: B1 chain with A266Y, L267A
B54: glucagon-like peptide 1 receptor (GLP-1R), wild-type, P43220 H212A (protein)
chain: B1 chain with H189A, A266Y

Residue numbers refer to the chain shown, from its start. Numbers in names are those of the source.

For the assay, the target named is exendin-4, P26349. The assay can be described thus: radioligand inhibition binding (competition with 125I-exendin-4(9-39)). Conditions: chain shown with the change;; read off a plot.
For B1, the log10 ratio was 0 ΔpKi.

For the molecule B2, the log10 ratio was -0.15 ΔpKi.

As to B3, the log10 ratio was -0.25 ΔpKi.

For the molecule B4, the log10 ratio was -1.3 ΔpKi.

For B5, the log10 ratio is -1.1 ΔpKi.

Take B6: the log10 ratio was -0.2 ΔpKi.

For B7, the log10 ratio was -0.5 ΔpKi.

B8: the log10 ratio is -0.1 ΔpKi.

In the case of B9, the log10 ratio was -1.8 ΔpKi.

With B10, the log10 ratio was -0.1 ΔpKi.

On to B11, for which the log10 ratio was -1.8 ΔpKi.

Consider B12, for which the log10 ratio was -0.4 ΔpKi.

As to B13, the log10 ratio was -0.7 ΔpKi.

In the case of B14, the log10 ratio was -0.15 ΔpKi.

As to B15, the log10 ratio was -1.8 ΔpKi.

Regarding B16, the log10 ratio was -0.95 ΔpKi.

Take B17: the log10 ratio was -0.25 ΔpKi.

For the molecule B18, the log10 ratio was -0.2 ΔpKi.

As to B19, the log10 ratio is -0.25 ΔpKi.

Consider B20, for which the log10 ratio is 0.1 ΔpKi.

As to B21, the log10 ratio was -1.1 ΔpKi.

Take B22: the log10 ratio was -0.4 ΔpKi.

Turning to B23, the log10 ratio was -1.9 ΔpKi.

With B24, the log10 ratio is -0.45 ΔpKi.

With B25, the log10 ratio was -0.75 ΔpKi.

With B26, the log10 ratio is -0.15 ΔpKi.

Turning to B27, the log10 ratio was -0.5 ΔpKi.

As to B28, the log10 ratio was -0.25 ΔpKi.

With B29, the log10 ratio is -0.3 ΔpKi.

In the case of B30, the log10 ratio was -0.35 ΔpKi.

As for B31, the log10 ratio was -1.5 ΔpKi.

Regarding B32, the log10 ratio is -1.2 ΔpKi.

In the case of B33, the log10 ratio is -0.1 ΔpKi.

Turning to B34, the log10 ratio is -0.3 ΔpKi.

B35: the log10 ratio is -0.8 ΔpKi.

On to B36, for which the log10 ratio was -0.4 ΔpKi.

Take B37: the log10 ratio is -0.15 ΔpKi.

On to B38, for which the log10 ratio is -0.35 ΔpKi.

As to B39, the log10 ratio is -0.2 ΔpKi.

As to B40, the log10 ratio is -1.5 ΔpKi.

Regarding B41, the log10 ratio is -1.7 ΔpKi.

Regarding B42, the log10 ratio is -1.2 ΔpKi.

For B43, the log10 ratio was -1.1 ΔpKi.

As for B44, the log10 ratio is -1.8 ΔpKi.

As to B45, the log10 ratio is -0.35 ΔpKi.

As for B46, the log10 ratio was -0.55 ΔpKi.

B47: the log10 ratio was -0.3 ΔpKi.

For B48, the log10 ratio was -0.4 ΔpKi.

As for B49, the log10 ratio was -0.2 ΔpKi.

On to B50, for which the log10 ratio is -0.3 ΔpKi.

For B51, the log10 ratio is -0.25 ΔpKi.

As for B52, the log10 ratio is -0.95 ΔpKi.

As for B53, the log10 ratio was -0.4 ΔpKi.

For the molecule B54, the log10 ratio was 0.3 ΔpKi.
